Biological target: DTL (UniProt Q9NZJ0)
Assay: co-IP with His tag antibody
Details: reference: His-PDCD4 wild type; sites S67

binding against the reference: lost
Substance: PDCD4 (from UniProt Q53EL6) His-PDCD4(S67A)
